Experimental data from the RNAGym collection of RNA variant scans (doi:10.1073/pnas.2313332121).

B1: TPR t1 (parent)
chain: GACCAAUCUGCCCUCAGAGCUCGAGAACAUCUUCGGAUGCAGAGGAGGCAGGCUUCGGUGGCGCGAUAGCGCCAACGUCCUCAACCUCCAAUGCAUCCCACCACAUGAUGAUGCCUGAAGAGCCUUGGUUUUUUG

Variants of: B1
Test: polymerase ribozyme fitness, log enrichment relative to wild type (log ratio); higher = more active; in vitro selection for triplet polymerase activity
Summary of the method: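 One round of in vitro selection, in triplicate, was applied to PCR-built, transcribed mutant libraries of each subunit of a heterodimeric triplet polymerase ribozyme. The steps were annealing with a biotinylated primer, partner subunit and triplets, incubation frozen at −7 °C, gel excision of extended constructs, streptavidin-bead capture and RT-PCR. Fitness is the logarithm, base 2, of genotype enrichment over wild-type enrichment from inverse-variance-weighted replicate averages of Illumina-sequenced inputs and outputs, keeping genotypes with ≥10 input reads and ≥1 read per output.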

Variant	polymerase ribozyme fitness (log ratio)
G44A C98A A111U	-5.83
G45A C49A G110U	-2.18
G45A C114U	-2.37
G45A A46U U55C C89U U131A	-0.91
A43G G61C	-4.3
A43G C73U C79A U96G A118U	-4.39
G42U U59A C62G C88G A90U C98U	-7.74
A43U G60C C82A G113A G128C	-4.68
G44U G69A C76A G120C	-6.09
A43C G45U	-3.71
G44A C49U U106G	-5.12
G44A G61C U78C C79G U112G	-3.26
A43C G44U G113A	-3.01
A43C C53U	-2.24
A43C G61A C101G	-4.23
A43U G69U A91C	0.416
G42U G47C C102A U112G G120U	-6.76
A43U C49A	-1.86
A43U U59A U134G	-1.56
G44U A121U	0.755
G44U G63C U78A	-0.651
G44U C62A	-2.41
A43G C88G G113U A121G	-3.25
A43G U87G	-0.843

Variant	polymerase ribozyme fitness (log ratio)
A43G G51C C72U U78G C79A U112A	-5.74
A43U A50G C72A G93C A95C C115U	-4.47
G44C U112G G120U G127C	-5.08
G42U C73A C99U	-6.29
G44U G77C A90U	-1.31
G44U G77C	-2.05
G45A C88A	-0.795
G45A A84C G120C G135A	0.21
G44A C94U U126G	-2.82
G44A C53A C56A	-1.42
G44A C72U	-1.55
G44A C72G	-1.16
A43U C114G G117C U126A	-5.06
G45A A111G C114A	-5.79
A43G C70U G120U G128U	-3.88
G44U C72U U96A U106G G117U A119U	-6.08
G44C C101A	-1.76
A43U G120C	-0.477
G44A G45U G61U A83C	-1.59
G44A G51C	-5.22
G42U G57C C104U U125G	-1.31
G44A C62A A111G	-3.93
A43U C56G C64U	-2.1
A43U C56A C85G U133A	-4.39

Variant	polymerase ribozyme fitness (log ratio)
A43U C104A A118U	-4.29
A43C G63A	-4.15
G44U C64U C82U U106G G120A	-1.25
A43C U112G U126G G128U	-3.02
G42U C64U	-1.54
G42U G45C A50G C82U A121G	0.685
G44U G128U	-3.49
G44A C94U	-0.754
A43G C56U	-1.77
G44A A46U G47C A74G	-1.99
G44A U59A G60U C89U A91G C104A C114U	-6.21
A43U G45A C56G G113A	-0.304
A43U A46G C62G	-4.27
A43C G61A C85G G113A C115U	-5.36
G44C G63A A121G	0.865
G42U U55G G117A	-3.02
G42U C73U G117A	-3.05
G44C C76U U78A	-1.08
A43U G52U A68G	-4.56
A43U G47U C72U U92A C104G C114G	-7.84
G42U C101U	-1.21
G42U U78C C88A U92A G120A	-1.83
A43U C80U C99U G120C	-6.23
A43G A50C C85U C89A	-3.67

Variant	polymerase ribozyme fitness (log ratio)
G42U G63U	-3.48
A43G C62U C73U A84C U92A A118U U132C G135C	-2.69
G42U G45C C76U	-2.43
G44A A46U G47C A74G G93A	-3.83
G42U G52U A105C	-6.66
G44U C53A G63A G113A	-2.93
G45A C56G U87G C114G	-5.48
G44A G52A C56U	-1.35
G44C G69U A121C	1.9
G44A C124A	0.456
A43U A111U	-4.27
G42U C62U	-1.69
G44A C82G	-1.66
G44U A108G	-2.57
G44C U87G	-0.724
A43G C85G	-2.89
G44A G71C C89U	-1.03
G44C G93A	-0.685
G44C G93U	-2.85
A43U G45A C53U C56G A84U	-2.19
A43C G71U C88A C123U	-3.41
G44A G57A A91G C101G G113U	-4.86
G44A G71C	-2.21
G44U U96C G120A G122A U129G	-2.51

Variant	polymerase ribozyme fitness (log ratio)
A43U U131A	-1.44
G44U G60C A91U A121G	-0.902
G44C G135U	-1.88
G42U C123A	-1.18
G44A G51A G63U U125A	-7.95
G44U G51A	-5.35
G45A C72U A74U	-1.2
G44C U59C	-1.09
A43U C56G C114U	-2.92
G44U C70U U96A C104A	-4.6
A43G G44U C49G U96A	-2.32
G44U C102G	-8.01
G42U G57U	-1.5
G45A A119G	0.105
A43U U129G	-2.71
A43G U133A	-1.57
G45A C85G	-3.89
A43U G63U G113U A119G	-2.34
G45A C53A C86A U133A	-1.69
A43G C115A G135C	-3.27
G45A C62A	-1.81
G45A C62U	-0.924
A43C U55G G61C C79U C97U U116G	-5.31
G44A C72G C80U C101U	-2.59

Variant	polymerase ribozyme fitness (log ratio)
A43U G57C C98U U126A	-4.59
A43U U54A G122U	-2.82
G44U G45A U54A	-3.42
A43C C70U	-3.69
G44C U106G C124G G135A	-0.579
A43U G71U U116C G128C	-5.7
A43U G44U A74U U87A	-5
G44C A50G G52U U54C U92C C124A	0.995
G45A C73U C97U A103U G120C	-5.59
A43C U54A	-2.54
G45A A50U	-1.05
G44A A121U	1.03
A43U C53U G77U C85G U106A	-5.13
A43G G61U C82G	-2.27
A43G C72U U112C G122U	-0.894
A43G C101U	-1.47
G45A G48A C86A C89U	-2.36
A43G G60U	-1.12
G44U A46C	-2.3
A43C C85A C101A	-5.53
G44A C49G U55G C85U U106G G107C C115G	-6.1
A43G C72A	-1.13
A43G C62U C72A G113C	-2.93
G45A A84C	-0.717

Variant	polymerase ribozyme fitness (log ratio)
A43C C82A	-2.48
G44U G135U	-2.86
A43U G63C U78C	-3.61
G44A G60U C72U A90U	-1.55
G44A A50G C73U	-0.0837
G44A A46U A91G U92A	-5.83
G44U A50U C101A C115A	-2.8
G44U A90G U132C	-0.625
A43U C49G C72A C86A	-2.29
G44A G69C	-2.21
A43U G120C C124U	-0.575
A43U C123G	0.036
G44U U96A U116G	-3.66
G42U G61C	-3.59
G44C C72U U78G C115G U133G	-1.84
G44C G122A	-1.4
G45A C56G U78A G122A U129G	-1.63
G44U A46G G117A C124U	-1.75
G44C C73A C115U	-2.64
G44A C49U A50C U78C U133G G135U	-1.75
G44C U54A C64U C82U C114G	-4.69
G44A A68G	-3.75
G45A A118G	-1.02
